Legend:
Test in all cases: cell-based or functional assay
[1] = target: IR (h) (human, UniProt P06213 1005-1310, limits assumed)
[2] = target: PKA(h) (human, UniProt P17612 1-351)
[3] = target: PKBβ (h) (human, UniProt P31751 1-481, limits assumed)
[4] = target: T1, SGK (SGK1) Serum/glucocorticoid regulated kinase (human, UniProt O00141 60-431, limits assumed)
T1 sequence (looked up): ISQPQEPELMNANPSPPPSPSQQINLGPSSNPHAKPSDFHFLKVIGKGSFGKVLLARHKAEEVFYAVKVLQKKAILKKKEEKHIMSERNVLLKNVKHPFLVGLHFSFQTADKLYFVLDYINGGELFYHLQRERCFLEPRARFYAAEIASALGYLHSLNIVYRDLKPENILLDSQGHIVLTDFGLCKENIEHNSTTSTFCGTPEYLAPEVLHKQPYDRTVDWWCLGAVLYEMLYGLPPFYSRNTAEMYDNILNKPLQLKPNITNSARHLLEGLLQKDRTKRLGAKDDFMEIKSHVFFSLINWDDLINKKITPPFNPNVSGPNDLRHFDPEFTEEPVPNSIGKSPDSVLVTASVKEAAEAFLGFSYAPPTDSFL

[5] = target: PKCβII (h) (human, UniProt P05771-2 1-673)
[6] = target: T2, IKKβ(h) (human, UniProt O14920 1-756, limits assumed)
T2 sequence (looked up): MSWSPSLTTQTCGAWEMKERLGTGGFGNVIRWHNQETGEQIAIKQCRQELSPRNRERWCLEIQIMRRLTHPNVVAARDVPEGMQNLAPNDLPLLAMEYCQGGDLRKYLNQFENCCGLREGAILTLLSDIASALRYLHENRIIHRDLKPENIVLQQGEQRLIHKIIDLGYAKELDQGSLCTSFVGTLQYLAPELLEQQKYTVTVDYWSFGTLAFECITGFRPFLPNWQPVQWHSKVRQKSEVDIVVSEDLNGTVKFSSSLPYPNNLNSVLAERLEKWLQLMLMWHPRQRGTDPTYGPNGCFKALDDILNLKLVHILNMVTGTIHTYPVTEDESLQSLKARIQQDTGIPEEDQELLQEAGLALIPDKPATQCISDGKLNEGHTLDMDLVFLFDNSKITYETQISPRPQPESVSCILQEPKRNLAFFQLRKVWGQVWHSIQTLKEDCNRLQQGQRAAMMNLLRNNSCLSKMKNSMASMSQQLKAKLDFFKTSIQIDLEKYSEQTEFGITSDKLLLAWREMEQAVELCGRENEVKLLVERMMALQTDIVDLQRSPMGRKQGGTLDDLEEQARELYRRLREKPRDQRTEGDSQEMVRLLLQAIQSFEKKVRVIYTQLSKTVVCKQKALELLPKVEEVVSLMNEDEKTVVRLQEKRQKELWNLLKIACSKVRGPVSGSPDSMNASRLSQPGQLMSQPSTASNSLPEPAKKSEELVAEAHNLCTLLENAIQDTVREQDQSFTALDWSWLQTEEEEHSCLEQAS

[7] = target: GSK3β (h) (human, UniProt P49841 1-420, limits assumed)
[8] = target: T3, PKCζ (h) (human, UniProt Q05513 1-592, limits assumed)
T3 sequence (looked up): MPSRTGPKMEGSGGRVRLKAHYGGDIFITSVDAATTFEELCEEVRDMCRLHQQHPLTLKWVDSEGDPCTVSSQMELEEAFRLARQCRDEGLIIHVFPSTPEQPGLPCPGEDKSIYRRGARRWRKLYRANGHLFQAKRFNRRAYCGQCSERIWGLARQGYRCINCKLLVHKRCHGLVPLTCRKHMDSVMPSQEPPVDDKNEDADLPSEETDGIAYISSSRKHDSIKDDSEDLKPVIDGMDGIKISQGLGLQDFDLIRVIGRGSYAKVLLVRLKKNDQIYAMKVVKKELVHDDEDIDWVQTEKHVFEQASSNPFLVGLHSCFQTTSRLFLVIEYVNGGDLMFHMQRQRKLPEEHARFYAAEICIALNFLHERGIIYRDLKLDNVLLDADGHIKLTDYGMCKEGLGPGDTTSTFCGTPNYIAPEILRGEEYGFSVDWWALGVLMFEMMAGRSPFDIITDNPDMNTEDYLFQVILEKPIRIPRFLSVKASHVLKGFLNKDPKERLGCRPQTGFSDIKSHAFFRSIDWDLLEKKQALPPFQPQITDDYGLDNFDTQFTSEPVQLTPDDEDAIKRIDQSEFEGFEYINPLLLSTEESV

[9] = target: MAPK2 (h) (human, UniProt P28482 1-360, limits assumed)
[10] = target: MAPK1 (h) (human, UniProt P28482)
[11] = target: T4, PDK1 (h) (human, UniProt O15530 1-556, limits assumed)
T4 sequence (looked up): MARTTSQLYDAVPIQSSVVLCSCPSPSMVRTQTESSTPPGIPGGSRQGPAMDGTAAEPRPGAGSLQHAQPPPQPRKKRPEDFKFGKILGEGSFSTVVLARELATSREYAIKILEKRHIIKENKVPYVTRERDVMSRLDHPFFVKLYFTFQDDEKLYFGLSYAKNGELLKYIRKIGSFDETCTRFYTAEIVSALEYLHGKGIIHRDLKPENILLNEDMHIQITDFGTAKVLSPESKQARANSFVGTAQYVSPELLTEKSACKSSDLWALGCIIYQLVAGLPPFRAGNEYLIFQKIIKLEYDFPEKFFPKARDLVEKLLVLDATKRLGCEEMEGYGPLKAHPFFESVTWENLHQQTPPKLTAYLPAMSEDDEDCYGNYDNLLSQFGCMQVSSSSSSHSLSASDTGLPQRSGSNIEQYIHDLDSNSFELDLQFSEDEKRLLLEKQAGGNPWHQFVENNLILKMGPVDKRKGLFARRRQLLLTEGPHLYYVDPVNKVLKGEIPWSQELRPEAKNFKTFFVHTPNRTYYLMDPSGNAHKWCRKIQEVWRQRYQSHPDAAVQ

[12] = target: RPS6KB1 (p70S6K) Ribosomal protein S6 kinase, 70 kDa, polypeptide 1 (human, UniProt P23443 1-421, limits assumed)
Chain of RPS6KB1 (p70S6K) Ribosomal protein S6 kinase, 70 kDa, polypeptide 1 (P23443 1-421 limits assumed): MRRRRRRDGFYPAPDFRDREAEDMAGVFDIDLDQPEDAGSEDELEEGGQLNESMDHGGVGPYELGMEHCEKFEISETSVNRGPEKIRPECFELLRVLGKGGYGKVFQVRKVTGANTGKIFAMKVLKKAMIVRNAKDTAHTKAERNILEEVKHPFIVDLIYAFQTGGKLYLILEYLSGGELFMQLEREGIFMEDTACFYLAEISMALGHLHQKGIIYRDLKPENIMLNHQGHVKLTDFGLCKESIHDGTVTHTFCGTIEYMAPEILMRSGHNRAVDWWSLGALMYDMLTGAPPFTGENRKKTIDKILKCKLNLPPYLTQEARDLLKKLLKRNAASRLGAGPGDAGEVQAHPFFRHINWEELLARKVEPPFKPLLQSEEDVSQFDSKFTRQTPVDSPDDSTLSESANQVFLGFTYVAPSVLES

Chain of IR (h) (P06213 1005-1310 limits assumed): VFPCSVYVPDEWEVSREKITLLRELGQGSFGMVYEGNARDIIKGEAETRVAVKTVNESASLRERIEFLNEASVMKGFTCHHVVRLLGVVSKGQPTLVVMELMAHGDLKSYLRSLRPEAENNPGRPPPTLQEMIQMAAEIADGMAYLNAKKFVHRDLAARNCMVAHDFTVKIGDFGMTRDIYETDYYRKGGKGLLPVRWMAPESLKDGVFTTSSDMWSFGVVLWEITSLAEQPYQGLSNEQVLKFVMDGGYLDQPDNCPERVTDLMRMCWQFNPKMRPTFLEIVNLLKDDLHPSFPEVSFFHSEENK
Chain of MAPK2 (h) (P28482 whole entry): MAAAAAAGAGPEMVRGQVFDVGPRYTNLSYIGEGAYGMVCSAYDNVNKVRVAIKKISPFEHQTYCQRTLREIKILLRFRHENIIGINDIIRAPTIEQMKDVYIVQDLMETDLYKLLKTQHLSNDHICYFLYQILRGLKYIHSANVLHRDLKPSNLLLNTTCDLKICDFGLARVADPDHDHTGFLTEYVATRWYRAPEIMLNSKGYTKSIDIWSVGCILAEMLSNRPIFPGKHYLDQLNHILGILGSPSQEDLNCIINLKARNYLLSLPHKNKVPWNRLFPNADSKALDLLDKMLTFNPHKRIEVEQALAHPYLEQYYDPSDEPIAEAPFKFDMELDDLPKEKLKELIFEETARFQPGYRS
Chain of PKCβII (h) (P05771 other isoform, or with tags, fused parts or gaps limits assumed): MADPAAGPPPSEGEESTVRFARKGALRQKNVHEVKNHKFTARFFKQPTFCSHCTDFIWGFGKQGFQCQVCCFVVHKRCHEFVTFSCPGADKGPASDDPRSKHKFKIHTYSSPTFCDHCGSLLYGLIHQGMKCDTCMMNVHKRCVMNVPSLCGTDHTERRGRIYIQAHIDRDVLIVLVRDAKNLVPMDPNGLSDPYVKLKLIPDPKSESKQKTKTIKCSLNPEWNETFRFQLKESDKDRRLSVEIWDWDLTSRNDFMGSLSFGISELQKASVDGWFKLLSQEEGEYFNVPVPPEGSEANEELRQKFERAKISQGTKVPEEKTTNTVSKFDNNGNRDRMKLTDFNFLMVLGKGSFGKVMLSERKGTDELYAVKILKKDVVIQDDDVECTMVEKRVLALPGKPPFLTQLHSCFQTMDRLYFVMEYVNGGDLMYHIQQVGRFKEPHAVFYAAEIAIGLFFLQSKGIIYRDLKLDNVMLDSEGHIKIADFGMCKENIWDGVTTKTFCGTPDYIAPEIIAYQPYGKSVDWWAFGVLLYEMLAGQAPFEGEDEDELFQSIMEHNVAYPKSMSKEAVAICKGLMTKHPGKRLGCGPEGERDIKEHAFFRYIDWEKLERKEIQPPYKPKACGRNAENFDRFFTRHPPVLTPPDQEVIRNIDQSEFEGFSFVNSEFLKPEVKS
Chain of MAPK1 (h) (P28482 2-360): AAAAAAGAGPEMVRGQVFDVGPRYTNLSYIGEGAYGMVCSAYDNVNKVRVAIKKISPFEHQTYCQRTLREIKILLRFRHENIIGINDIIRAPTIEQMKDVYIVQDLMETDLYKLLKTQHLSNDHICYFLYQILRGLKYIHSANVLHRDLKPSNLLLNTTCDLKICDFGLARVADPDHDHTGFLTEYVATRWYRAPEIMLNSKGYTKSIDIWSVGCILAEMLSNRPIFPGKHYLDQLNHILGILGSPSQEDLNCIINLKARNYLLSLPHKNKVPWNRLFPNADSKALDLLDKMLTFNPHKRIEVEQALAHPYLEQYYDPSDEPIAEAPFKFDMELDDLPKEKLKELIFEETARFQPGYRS
Chain of PKBβ (h) (P31751 whole entry): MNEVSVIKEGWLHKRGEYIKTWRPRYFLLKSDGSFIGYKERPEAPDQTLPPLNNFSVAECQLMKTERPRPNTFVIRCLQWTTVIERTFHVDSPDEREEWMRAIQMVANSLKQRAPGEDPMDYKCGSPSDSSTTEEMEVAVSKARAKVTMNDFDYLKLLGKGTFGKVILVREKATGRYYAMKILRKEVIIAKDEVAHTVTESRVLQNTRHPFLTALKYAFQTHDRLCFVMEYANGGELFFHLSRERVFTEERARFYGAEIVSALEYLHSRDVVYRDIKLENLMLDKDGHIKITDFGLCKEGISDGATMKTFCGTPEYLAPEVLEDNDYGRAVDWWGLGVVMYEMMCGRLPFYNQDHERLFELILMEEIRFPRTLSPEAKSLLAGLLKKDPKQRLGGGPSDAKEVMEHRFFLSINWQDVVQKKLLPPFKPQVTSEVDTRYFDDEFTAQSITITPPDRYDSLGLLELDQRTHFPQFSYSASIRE
Chain of GSK3β (h) (P49841 whole entry): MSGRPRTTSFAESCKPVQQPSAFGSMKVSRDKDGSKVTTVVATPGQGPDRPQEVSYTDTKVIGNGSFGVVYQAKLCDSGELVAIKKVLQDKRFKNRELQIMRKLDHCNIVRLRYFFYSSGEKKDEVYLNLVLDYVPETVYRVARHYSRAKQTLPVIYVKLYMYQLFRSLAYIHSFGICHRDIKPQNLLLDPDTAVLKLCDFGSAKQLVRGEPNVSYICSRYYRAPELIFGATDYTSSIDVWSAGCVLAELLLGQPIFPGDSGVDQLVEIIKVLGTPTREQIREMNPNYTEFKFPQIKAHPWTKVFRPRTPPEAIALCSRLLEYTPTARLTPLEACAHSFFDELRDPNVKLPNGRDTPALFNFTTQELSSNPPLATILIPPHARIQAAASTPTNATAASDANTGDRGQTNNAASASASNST

B1: D3 peptide (peptide)
peptide: SGRPPMIVWFNRPFLIAVSHTHGQTILFMAKVINPVGA
D3 at 0.1 µM % activity [1]: 96 % activity | D3 at 1 µm % activity [1]: 103 % activity | D3 at 0.1 µM % activity [2]: 115 % activity | D3 at 1 µm % activity [2]: 105 % activity | D3 at 0.1 µM % activity [3]: 63 % activity | D3 at 1 µm % activity [3]: 12 % activity | D3 at 0.1 µM % activity [4]: 74 % activity | D3 at 1 µm % activity [4]: 5 % activity | D3 at 0.1 µM % activity [5]: 101 % activity | D3 at 1 µm % activity [5]: 103 % activity | D3 at 0.1 µM % activity [6]: 103 % activity | D3 at 1 µm % activity [6]: 71 % activity | D3 at 0.1 µM % activity [7]: 101 % activity | D3 at 1 µm % activity [7]: 100 % activity | D3 at 0.1 µM % activity [8]: 95 % activity | D3 at 1 µm % activity [8]: 42 % activity | D3 at 0.1 µM % activity [9]: 96 % activity | D3 at 1 µm % activity [9]: 96 % activity | D3 at 0.1 µM % activity [10]: 86 % activity | D3 at 1 µm % activity [10]: 92 % activity | D3 at 0.1 µM % activity [11]: 98 % activity | D3 at 1 µm % activity [11]: 108 % activity | D3 at 0.1 µM % activity [12]: 73 % activity | D3 at 1 µm % activity [12]: 22 % activity

Reference: patent US20090203602A1 (AMERICAN TYPE CULTURE COLLECTION, published 2009)
